Earlier results as cited in PMC12655228.

Target: HER2 (Homo sapiens) (UniProt P04626)

Q: Which Kd does the source give for Trastuzumab here?
A: 0.1 nM
